What was measured:
[1] = molecular target: 人重组结合素-4蛋白 (recombinant human Nectin-4, extracellular domain) (human) (UniProt Q96NY8); test: ELISA, recombinant human Nectin-4 coated on plate
[2] = molecular target: 人结合素-4 (full-length human Nectin-4 on cells) (human) (UniProt Q96NY8); test: FACS competition: antibody titrated against biotinylated human Nectin-1-His (competitor, 0.75 ug/ml) on CHO-Nectin-4 cells
Chain of 人结合素-4 (full-length human Nectin-4 on cells) (human) (Q96NY8 32-510): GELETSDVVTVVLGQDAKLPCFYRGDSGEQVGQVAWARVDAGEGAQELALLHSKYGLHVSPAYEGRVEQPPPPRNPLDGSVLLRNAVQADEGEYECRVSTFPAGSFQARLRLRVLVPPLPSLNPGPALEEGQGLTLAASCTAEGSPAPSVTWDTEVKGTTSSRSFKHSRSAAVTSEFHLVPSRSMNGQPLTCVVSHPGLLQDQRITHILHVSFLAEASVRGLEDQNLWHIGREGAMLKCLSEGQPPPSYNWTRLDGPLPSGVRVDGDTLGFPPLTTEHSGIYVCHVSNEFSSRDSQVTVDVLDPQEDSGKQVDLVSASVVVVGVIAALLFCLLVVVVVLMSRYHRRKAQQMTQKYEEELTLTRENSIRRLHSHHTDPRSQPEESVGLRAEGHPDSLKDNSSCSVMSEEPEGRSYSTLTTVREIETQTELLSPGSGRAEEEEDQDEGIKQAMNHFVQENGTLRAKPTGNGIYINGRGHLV

Chain of 人重组结合素-4蛋白 (recombinant human Nectin-4, extracellular domain) (human) (Q96NY8 32-349): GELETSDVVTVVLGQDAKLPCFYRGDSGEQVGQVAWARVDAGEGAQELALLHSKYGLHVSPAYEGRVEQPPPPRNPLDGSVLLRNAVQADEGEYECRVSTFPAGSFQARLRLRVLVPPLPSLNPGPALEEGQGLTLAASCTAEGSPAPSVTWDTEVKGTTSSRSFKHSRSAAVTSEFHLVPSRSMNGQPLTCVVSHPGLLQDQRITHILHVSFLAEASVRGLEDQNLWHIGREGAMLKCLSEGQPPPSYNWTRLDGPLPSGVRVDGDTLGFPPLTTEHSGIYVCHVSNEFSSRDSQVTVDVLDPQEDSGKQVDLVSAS

EC50 [1]: 0.34 nM
EC50 [2]: 0.16 nM
Substance: 阳性对照1 (PC1), in-house Nectin-4-specific antibody based on enfortumab antibody (AGS-22M6)

Source: CN116507641A
